# Results from patent US20200179430A1, “USE OF P2Y1 RECEPTOR AND ANTAGONIST THEREOF IN PREVENTION AND TREATMENT OF DEPRESSION AND/OR ANXIETY DISORDER” (SOUTHERN MEDICAL UNIVERSITY, priority 2017, published 2020).
# Entries after “also recorded” stand apart in the source; their conditions may differ.
# B1: P2Y1-shRNA: P2Y1 specific-interfering shRNA packaged in adeno-associated virus type 9, U6 promoter; sequences SEQ ID NO:1 and SEQ ID NO:2 (nucleic acid)
# chain 1: GATCCCCAGCCCTCATCTTCTACTACTTCATTCAAGAGATGAAGTAGTAGAAGATGAGGGCTGGTTTTTTAGATCTA
# chain 2: AGCTTAGATCTAAAAAACCAGCCCTCATCTTCTACTACTTCATCTCTTGAATGAAGTAGTAGAAGATGAGGGCTGGG
# Assays:
# P2Y1 receptor [1] = biological target: T1, P2Y1 receptor (Mus musculus, UniProt P49650); test: Forced swimming test (FST) in C57BL/6J mice; format: in vivo; details: for anti-depression like behavior (immobility time of swimming within the last 4 minutes): MRS2500 2.5 mg/kg intraperitoneally, FST 30 minutes later, 6 minutes; for immobility time of swimming: lateral ventricle administration, MRS2500 0.1 μM, MRS2179 0.2 μM, 1 μL, vs artificial cerebrospinal fluid control, FIG. 2; for immobility time during the forced swimming test: 0.5 μL shRNA adeno-associated virus at ventral tegmental area, 14 days after injection, vs control virus
# T1 construct: from tissue; host or cells: living C57BL/6J mice; brain (lateral ventricle administration, ventral tegmental area) or systemic (intraperitoneal)
# Procedure: Forced swimming test which was proposed by Porsolt in 1977 was applied to the rats at the earliest, and subsequently extended to the mice. The forced swimming test is used to screening for antidepressants which are found to decrease immobility time of the forced swimming mice, and such model is one of the most common-used models for screening for antidepressants at present. The test steps are as follows: experimental mice adapted in an ethology laboratory for at least 60 minutes in advance, and the following test was carried out: an individual mouse was put in a cylinder glass jar (height: 45 cm; diameter: 19 cm) with a water depth of 23 cm at water temperature of 22° C.-25° C., and was subjected to the forced swimming for 6 minutes. Accumulative immobility time within the last 4 minutes was recorded (mainly behaves as stopping struggling, floating upright, or having only small limb movements to keep the head emerge from the water) as an index of tested depression-like behavior. Effect of the antidepressant can shorten the immobility time of the experimental mice.
# Experimental animals: C57BL/6J mice, grade SPF, male, body weight of 20 to 24 g. The animals were provided by the Laboratory Animal Center of Southern Medical University (Guangzhou, China). The mice were put in the SPF grade animal feeding room for feeding in separate cages, with 3 to 4 mice in each cage. The plastic cage has a size of 300 mm×170 mm×120 mm. Room temperature: 24±1° C., light-dark cycle: 12 hours/12 hours, illumination time: 7:00 a.m. to 7:00 p.m., relative humidity: 70% to 85%. The indoor environment was kept quiet and the mice could eat and drink freely. The tests were carried out at 1:00 to 5:00 in the afternoon. Before the test, the mice entered the experimental environment in advance for adaptation and were touched by the experimental personnel for adaptation.
# In the forced swimming test of the C57BL/6J mice, the animals were divided into 5 groups randomly with 10 mice in each group. The animals in each group were surgically implanted with a medical perfusion tube at the lateral ventricle and fed for seven days for recovery. Then, four groups of animals were subjected to the following treatment respectively: by using a microdose drug delivery system, administering the corresponding reagent: a control solution (artificial cerebrospinal fluid, 1 μL, 1 μL/min), MRS2500 (0.1 μM, 1 μL, 1 μL/min), MRS2179 (0.2 μM, 1 μL, 1 μL/min). After the injection for each group was completed, the forced swimming test was carried out 10 minutes later.
# 2.5 mg/kg MRS2500 was intraperitoneally administered to the mice, and 30 minutes later, the mice were subjected to the forced swimming test for 6 minutes. Immobility time of swimming within the last 4 minutes was determined to evaluate the effect of the antidepressant.
# Test method: the animal in each group was micro-injected with 0.5 μL of interfering RNA adeno-associated virus (shRNA) at the ventral tegmental area (angle: 7°, AP: −3.2 mm, ML: 1.0 mm, DV: −4.6 mm) (0.1 μL/min, remaining the needle for 5 minutes after injection), fed for 14 days and subjected to a forced swimming test after the expression recovery of virus. Titer of the P2Y1 specific-interfering shRNA is 1×10^13 v.g/ml, 9.55E+08 copy/μL. Adeno-associated virus type 9 was used to package the virus, with the promoter being U6 and the serotype being AAV9 (packaged by Biowit Company, Shenzhen, China). Sequence information: the forward sequence is shown as SEQ ID NO:1; and the reverse sequence is shown as SEQ ID NO:2.
# P2Y1 receptor [2] = biological target: T1, P2Y1 receptor; test: Chronic social defeat stress model, social interaction test; format: in vivo, mice; details: for duration at the interaction area, social interaction test: chronic social defeat stress depressed mice, 14 days after injection of shRNA virus, FIG. 9
# Procedure: The chronic social defeat stress model was carried out referring to the Golden method.
# The C57BL/6J mice were randomly divided into a control group and a stress group. The C57BL/6J mouse in the stress group was daily put in a cage with a screened CD-1 mouse therein, for 10-minute body contact. As an invader, the C57BL/6J mouse behaved as escape, fear, obedience and the like after being attacked. After the contact, within the 24 hours after they were separated by a transparent and perforate partition, the C57BL/6J mouse could smell, see and hear the CD-1 mouse at the opposite side for mental stress. The C57BL/6J mice took turns daily to guarantee to be subjected to even stress. The test was continued for ten days. The CD-1 mouse in the control group was replaced by another C57BL/6J mouse, and took turns daily, but body contact was avoided. After modeling, the mice were fed in separate cages and were subjected to tube-implant surgery at the lateral ventricle. The control group and the test group were administered the corresponding reagent respectively: a control solution (artificial cerebrospinal fluid, 1 μL, 1 μL/min), MRS2500 (0.1 μM, 1 μL, 1 μL/min). After administration, depression level of the mice was tested by a social interaction test. The social interaction test was divided into two stages, 2.5 minutes for each stage. First stage (no target): the CD-1 mouse was not put in a transparent and perforate organic glass box; the C57BL/6J mice were put at the distal side, and dwell durations thereof at the interaction area and at the corner within 2.5 minutes were recorded. Second stage (target): the CD-1 mouse was put in the transparent and perforate organic glass box; the C57BL/6J mice were put at the distal side, and dwell durations thereof at the interaction area and at the corner within 2.5 minutes were recorded.
# Experimental animals: C57BL/6J mice, grade SPF, male, body weight of 20 to 24 g. The animals were provided by the Laboratory Animal Center of Southern Medical University (Guangzhou, China). […]
# P2Y1 receptor [3] = biological target: T1, P2Y1 receptor; test: Sucrose preference test of mice modeled by chronic social defeat stress model; format: in vivo; details: chronic social defeat stress depressed mice; 14 days after injection of shRNA virus; FIG. 11
# P2Y1 receptor [4] = test: Expression of P2Y1 receptor after intracerebral injection of interfering RNA adeno-associated virus; format: in vivo; details: mice injected at ventral tegmental area; vs control group mice
# Procedure: In order to further verify whether the P2Y1 receptor can be used as a target of anti-depression and/or anti-anxiety, and to avoid the compensatory effect that may exist in the conventional knockout mice, P2Y1 receptor specifically-interfering adeno-associated virus was prepared in the present invention to be observed whether the virus affects the depression-like behavior. The mice were intracerebrally injected with a trace amount of the P2Y1 receptor-interfering RNA adeno-associated virus at the ventral tegmental area, and then a forced swimming test was carried out. […] The inventors further used a depression model, chronic social defeat stress model to verify the effect of the P2Y1 receptor specifically-interfering adeno-associated virus. After modeling of the depression model was completed, the mice took a day off, and then were administered the P2Y1 receptor specifically-interfering adeno-associated virus, and two weeks later the mice were subjected to a behavior test. […] In the sucrose preference test, a decreased sucrose preference of the social failure depressed mice was reversed (as shown in FIG. 11). […]
# P2Y1 receptor [5] = biological target: T1, P2Y1 receptor; test: Forced swimming test of mice modeled by chronic social defeat stress model; format: in vivo; details: chronic social defeat stress depressed mice, 14 days after injection of shRNA virus, FIG. 10
# Procedure: Forced swimming test which was proposed by Porsolt in 1977 was applied to the rats at the earliest, and subsequently extended to the mice. The forced swimming test is used to screening for antidepressants which are found to decrease immobility time of the forced swimming mice, and such model is one of the most common-used models for screening for antidepressants at present. […] Accumulative immobility time within the last 4 minutes was recorded (mainly behaves as stopping struggling, floating upright, or having only small limb movements to keep the head emerge from the water) as an index of tested depression-like behavior. […]
# The C57BL/6J mice were randomly divided into a control group and a stress group. […] First stage (no target): the CD-1 mouse was not put in a transparent and perforate organic glass box; the C57BL/6J mice were put at the distal side, and dwell durations thereof at the interaction area and at the corner within 2.5 minutes were recorded. Second stage (target): the CD-1 mouse was put in the transparent and perforate organic glass box; the C57BL/6J mice were put at the distal side, and dwell durations thereof at the interaction area and at the corner within 2.5 minutes were recorded. […]
# [6] = listed as P2Y1 receptor specifically-interfering adeno-associated virus
# T1 sequence (P49650 whole entry): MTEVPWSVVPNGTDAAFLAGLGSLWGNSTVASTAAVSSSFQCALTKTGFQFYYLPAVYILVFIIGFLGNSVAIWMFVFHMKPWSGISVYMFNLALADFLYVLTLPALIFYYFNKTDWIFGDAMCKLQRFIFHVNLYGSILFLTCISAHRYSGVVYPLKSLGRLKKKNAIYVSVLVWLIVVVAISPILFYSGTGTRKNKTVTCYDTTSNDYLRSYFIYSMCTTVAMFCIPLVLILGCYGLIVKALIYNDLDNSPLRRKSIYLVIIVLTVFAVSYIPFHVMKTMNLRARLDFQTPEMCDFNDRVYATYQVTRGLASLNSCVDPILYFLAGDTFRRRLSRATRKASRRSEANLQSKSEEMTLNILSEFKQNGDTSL
molecule,measurement,setting,value
CNCCC(Oc1ccc(C(F)(F)F)cc1)c1ccccc1 (stereo not shown) [Fluoxetine],anti-depression like behavior (immobility time of swimming within the last 4 minutes),P2Y1 receptor [1]; FIG. 1,anti-depression like behavior
CNc1ncnc2c1ncn2[C@H]1C[C@H](OP(=O)(O)O)[C@@H](COP(=O)(O)O)O1 [MRS2179],immobility time of swimming,P2Y1 receptor [1],significantly reduce the immobility time; also recorded: significantly shorten the immobility time of swimming
CNc1nc(I)nc2c1ncn2[C@H]1C[C@H](OP(=O)(O)O)[C@]2(COP(=O)(O)O)C[C@H]12 [MRS2500],dwell duration at the interaction area (depressive situation),"P2Y1 receptor [2]; chronic social defeat stress C57BL/6J mice, single dose MRS2500 0.1 μM, 1 μL, lateral ventricle, FIG. 3",significantly improved; also recorded: can improve the dwell duration at the interaction area
same,anti-depression like behavior (immobility time of swimming within the last 4 minutes),"P2Y1 receptor [1]; FIG. 1, 2.5 mg/kg",shows the same anti-depression like behavior as administration of the conventional antidepressant Fluoxetine
same,immobility time of swimming,P2Y1 receptor [1],significantly reduce the immobility time; also recorded: significantly shorten the immobility time of swimming
B1,"duration at the interaction area, social interaction test",P2Y1 receptor [2],enhance the duration at the interaction area
same,"duration at the interaction area, social interaction test",P2Y1 receptor [2]; [6],situation of the social defeat depressed mice was reversed
same,sucrose preference,P2Y1 receptor [3],enhance the decreased sucrose preference
same,immobility time during the forced swimming test,P2Y1 receptor [1]; FIG. 8,significantly reduced immobility time
same,immobility time during the forced swimming test,"P2Y1 receptor [1]; FIG. 8, listed as P2Y1 receptor-interfering RNA",obviously decreased immobility time
same,expression of P2Y1 receptor,P2Y1 receptor [4],significantly decreased the expression of P2Y1 receptor
same,"immobility time, forced swimming test",P2Y1 receptor [5],reduce the increased immobility time
same,"immobility time, forced swimming test",P2Y1 receptor [5]; [6],returned to the level of the control group
